Assay results published in the supplement of paper PMC7877785.
± gives the uncertainty stated by the source.

Assay: self-splicing fitness, log relative to wild type (ln ratio); higher = more splicing; Tetrahymena group I intron in knt gene, E. coli kanamycin selection, DiMSum; sequences stand for … in CUCUCU…GGAGGGAAAAGUUAUCAGGCAUGCACCUGGUAGCUAGUCUUUAAACCAAUAGAUUGCAUCGGUUUAAAAGGCAAGACCGUCAAAUUGCGGGAAAGGGGUCAACAGCCGUUCAGUACCAAGUCUCAGGGGAAACUUUGAGAUGGCCUUGCAAAGGGUAUGGUAAUAAGCUGACGGACAUGGUCCUAACCACGCAGCCAAGUCCUAAGUCAACAGAUCUUCUGUUGAUAUGGAUGCAGUUCACAGACUAAAUGUCGGUCGGGGAAGAUGUAUUCUUCUCAUAAGAUAUAGUCGGACCUCUCCUUAAUGGGAGCUAGCGGAUGAAGUGAUGCAACACUGGAGCCGCUGGGAACUAAUUUGUAUGCGAAAGUAUAUUGAUUAGUUUUGGAGUACUCGUGGUCG
Summary of the method: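 DiMSum derived fitness as the error-weighted combination of fold changes across replicates, kanamycin versus no kanamycin, normalised to wild type. E. coli BL21(DE3) held the library, which randomised all eight P1ex-region intron nucleotides within the knt kanamycin-resistance gene on pET-22b(+). Six replicate transformations grew overnight at 37°C or 30°C on LB agar with or without 25 μg/mL kanamycin, also containing 100 μg/mL carbenicillin, 50 μM IPTG and 0.2% rhamnose, and pooled colonies were amplicon-sequenced on an Illumina HiSeq 2500.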

In the case of GGACAGCAAUAUUACGAAUU, the “self-splicing fitness (ln)” value (30 °C) is reported as -0.588 ± 0.076 and the “self-splicing fitness (ln)” value (37 °C) is reported as 0.11 ± 0.11.

In the case of GGACAGCAAUAUUACGACCG, the “self-splicing fitness (ln)” value (30 °C) is reported as -0.447 ± 0.16 and the “self-splicing fitness (ln)” value (37 °C) is reported as -0.054 ± 0.27.

In the case of GGACAGCAAUAUUACGAGGU, the “self-splicing fitness (ln)” value (30 °C) is reported as -3.35 ± 0.21 and the “self-splicing fitness (ln)” value (37 °C) is reported as -2.12 ± 0.14.

In the case of GGACAGCAAUAUUACGAUAU, the “self-splicing fitness (ln)” value (30 °C) is reported as -1.67 ± 0.08 and the “self-splicing fitness (ln)” value (37 °C) is reported as -0.201 ± 0.086.

For GGACAGCAAUAUUACGAUGA, the “self-splicing fitness (ln)” value (30 °C) was -1.08 ± 0.15 and the “self-splicing fitness (ln)” value (37 °C) was -1.65 ± 0.14.

With GGACAGCAAUAUUACGAUGU the “self-splicing fitness (ln)” value (30 °C) was -2.12 ± 0.055 and the “self-splicing fitness (ln)” value (37 °C) was -0.961 ± 0.057.

For GGACAGCAAUAUUACGAUUA, the “self-splicing fitness (ln)” value (30 °C) was -0.666 ± 0.13 and the “self-splicing fitness (ln)” value (37 °C) was -0.225 ± 0.12.

In the case of GGACAGCAAUAUUACGCGCA, the “self-splicing fitness (ln)” value (30 °C) is reported as -0.346 ± 0.061 and the “self-splicing fitness (ln)” value (37 °C) is reported as 0.497 ± 0.09.

With GGACAGCAAUAUUACGCGCU the “self-splicing fitness (ln)” value (30 °C) was -1.92 ± 0.22 and the “self-splicing fitness (ln)” value (37 °C) was -1.36 ± 0.34.

In the case of GGACAGCAAUAUUACGCGUC, the “self-splicing fitness (ln)” value (30 °C) is reported as -2.69 ± 0.22 and the “self-splicing fitness (ln)” value (37 °C) is reported as -2.78 ± 0.48.

With GGACAGCAAUAUUACGCUCA the “self-splicing fitness (ln)” value (30 °C) was -0.215 ± 0.12 and the “self-splicing fitness (ln)” value (37 °C) was -0.136 ± 0.15.

With GGACAGCAAUAUUACGCUGG the “self-splicing fitness (ln)” value (30 °C) was -2.75 ± 0.28 and the “self-splicing fitness (ln)” value (37 °C) was -2 ± 0.34.

For GGACAGCAAUAUUACGGAAA, the “self-splicing fitness (ln)” value (30 °C) was -2.04 ± 0.15 and the “self-splicing fitness (ln)” value (37 °C) was -1.23 ± 0.14.

In the case of GGACAGCAAUAUUACGGAUC, the “self-splicing fitness (ln)” value (30 °C) is reported as -1.3 ± 0.11 and the “self-splicing fitness (ln)” value (37 °C) is reported as 0.26 ± 0.13.

For GGACAGCAAUAUUACGGAUU, the “self-splicing fitness (ln)” value (30 °C) was -1.33 ± 0.066 and the “self-splicing fitness (ln)” value (37 °C) was 0.0211 ± 0.089.

In the case of GGACAGCAAUAUUACGGCAG, the “self-splicing fitness (ln)” value (30 °C) is reported as -3.87 ± 0.14 and the “self-splicing fitness (ln)” value (37 °C) is reported as -2.45 ± 0.1.

In the case of GGACAGCAAUAUUACGGCCC, the “self-splicing fitness (ln)” value (30 °C) is reported as -1.7 ± 0.46.

With GGACAGCAAUAUUACGGCGA the “self-splicing fitness (ln)” value (30 °C) was -0.0139 ± 0.1 and the “self-splicing fitness (ln)” value (37 °C) was -0.0325 ± 0.11.

For GGACAGCAAUAUUACGGCGU, the “self-splicing fitness (ln)” value (30 °C) was -0.74 ± 0.097 and the “self-splicing fitness (ln)” value (37 °C) was -0.627 ± 0.11.

With GGACAGCAAUAUUACGGCUU the “self-splicing fitness (ln)” value (30 °C) was -0.36 ± 0.11 and the “self-splicing fitness (ln)” value (37 °C) was 0.07 ± 0.11.

With GGACAGCAAUAUUACGGGGC the “self-splicing fitness (ln)” value (30 °C) was -1.63 ± 0.092 and the “self-splicing fitness (ln)” value (37 °C) was -1.72 ± 0.13.

With GGACAGCAAUAUUACGGGUU the “self-splicing fitness (ln)” value (30 °C) was -3.03 ± 0.11 and the “self-splicing fitness (ln)” value (37 °C) was -2.46 ± 0.21.

In the case of GGACAGCAAUAUUACGGUAC, the “self-splicing fitness (ln)” value (30 °C) is reported as -0.625 ± 0.11 and the “self-splicing fitness (ln)” value (37 °C) is reported as -0.234 ± 0.13.

With GGACAGCAAUAUUACGUACG the “self-splicing fitness (ln)” value (30 °C) was -0.876 ± 0.12 and the “self-splicing fitness (ln)” value (37 °C) was 0.399 ± 0.18.

In the case of GGACAGCAAUAUUACGUCCU, the “self-splicing fitness (ln)” value (30 °C) is reported as -4.07 ± 0.22 and the “self-splicing fitness (ln)” value (37 °C) is reported as -2.66 ± 0.33.

With GGACAGCAAUAUUACGUGUA the “self-splicing fitness (ln)” value (30 °C) was -0.376 ± 0.078 and the “self-splicing fitness (ln)” value (37 °C) was -0.304 ± 0.085.

With GGACAGCAAUAUUACGUUAG the “self-splicing fitness (ln)” value (30 °C) was -1.24 ± 0.066 and the “self-splicing fitness (ln)” value (37 °C) was -0.49 ± 0.085.

In the case of GGACAGCAAUAUUACGUUGU, the “self-splicing fitness (ln)” value (30 °C) is reported as -3.63 ± 0.14 and the “self-splicing fitness (ln)” value (37 °C) is reported as -3.51 ± 0.18.

With GGAGAGCAAUAUUACGAAUG the “self-splicing fitness (ln)” value (30 °C) was -3.28 ± 0.28 and the “self-splicing fitness (ln)” value (37 °C) was -2.71 ± 0.41.

For GGAGAGCAAUAUUACGACCA, the “self-splicing fitness (ln)” value (30 °C) was -2.28 ± 0.21 and the “self-splicing fitness (ln)” value (37 °C) was -1.92 ± 0.27.

In the case of GGAGAGCAAUAUUACGAUAC, the “self-splicing fitness (ln)” value (30 °C) is reported as -2.61 ± 0.35 and the “self-splicing fitness (ln)” value (37 °C) is reported as -2.47 ± 0.31.

In the case of GGAGAGCAAUAUUACGAUAU, the “self-splicing fitness (ln)” value (30 °C) is reported as -3.43 ± 0.24 and the “self-splicing fitness (ln)” value (37 °C) is reported as -0.657 ± 0.16.

For GGAGAGCAAUAUUACGCACA, the “self-splicing fitness (ln)” value (37 °C) was -0.604 ± 0.3.

With GGAGAGCAAUAUUACGCCUU the “self-splicing fitness (ln)” value (30 °C) was -2.58 ± 0.35.

In the case of GGAGAGCAAUAUUACGCGCG, the “self-splicing fitness (ln)” value (30 °C) is reported as -2.27 ± 0.11 and the “self-splicing fitness (ln)” value (37 °C) is reported as -1.26 ± 0.13.

With GGAGAGCAAUAUUACGGACU the “self-splicing fitness (ln)” value (30 °C) was -1.52 ± 0.13 and the “self-splicing fitness (ln)” value (37 °C) was -0.526 ± 0.17.

With GGAGAGCAAUAUUACGGCGA the “self-splicing fitness (ln)” value (30 °C) was -2.22 ± 0.27 and the “self-splicing fitness (ln)” value (37 °C) was -1.69 ± 0.28.

For GGAGAGCAAUAUUACGGUUC, the “self-splicing fitness (ln)” value (30 °C) was -1.36 ± 0.38.

With GGAGAGCAAUAUUACGUGUC the “self-splicing fitness (ln)” value (30 °C) was -3.21 ± 0.26 and the “self-splicing fitness (ln)” value (37 °C) was -1.46 ± 0.24.

With GGAGAGCAAUAUUACGUUUC the “self-splicing fitness (ln)” value (30 °C) was -3.17 ± 0.34.

In the case of GGAUAGCAAUAUUACGAGGG, the “self-splicing fitness (ln)” value (30 °C) is reported as -3.29 ± 0.28 and the “self-splicing fitness (ln)” value (37 °C) is reported as -2.33 ± 0.27.

With GGAUAGCAAUAUUACGAUCU the “self-splicing fitness (ln)” value (30 °C) was -1.25 ± 0.4 and the “self-splicing fitness (ln)” value (37 °C) was -2.24 ± 0.43.

In the case of GGAUAGCAAUAUUACGAUUA, the “self-splicing fitness (ln)” value (30 °C) is reported as -0.674 ± 0.17 and the “self-splicing fitness (ln)” value (37 °C) is reported as 0.409 ± 0.15.

For GGAUAGCAAUAUUACGCAAA, the “self-splicing fitness (ln)” value (30 °C) was -2.14 ± 0.29.

With GGAUAGCAAUAUUACGCACU the “self-splicing fitness (ln)” value (30 °C) was -2.36 ± 0.15 and the “self-splicing fitness (ln)” value (37 °C) was -1.05 ± 0.15.

In the case of GGAUAGCAAUAUUACGCAGU, the “self-splicing fitness (ln)” value (30 °C) is reported as -2.7 ± 0.18 and the “self-splicing fitness (ln)” value (37 °C) is reported as -1 ± 0.12.

With GGAUAGCAAUAUUACGCCAA the “self-splicing fitness (ln)” value (30 °C) was -2.37 ± 0.41 and the “self-splicing fitness (ln)” value (37 °C) was -1.01 ± 0.25.

For GGAUAGCAAUAUUACGCUUU, the “self-splicing fitness (ln)” value (30 °C) was -2.1 ± 0.16 and the “self-splicing fitness (ln)” value (37 °C) was -2.16 ± 0.21.

In the case of GGAUAGCAAUAUUACGGACU, the “self-splicing fitness (ln)” value (30 °C) is reported as -0.129 ± 0.14 and the “self-splicing fitness (ln)” value (37 °C) is reported as -0.134 ± 0.19.

With GGAUAGCAAUAUUACGGCCU the “self-splicing fitness (ln)” value (30 °C) was -2.24 ± 0.29 and the “self-splicing fitness (ln)” value (37 °C) was -0.0501 ± 0.17.

For GGAUAGCAAUAUUACGGCGA, the “self-splicing fitness (ln)” value (30 °C) was -0.101 ± 0.15 and the “self-splicing fitness (ln)” value (37 °C) was -0.302 ± 0.12.

For GGAUAGCAAUAUUACGGCGG, the “self-splicing fitness (ln)” value (30 °C) was -1.95 ± 0.14 and the “self-splicing fitness (ln)” value (37 °C) was -0.444 ± 0.13.

For GGAUAGCAAUAUUACGGGGA, the “self-splicing fitness (ln)” value (30 °C) was -3.41 ± 0.29 and the “self-splicing fitness (ln)” value (37 °C) was -3.52 ± 0.42.

In the case of GGAUAGCAAUAUUACGGGGG, the “self-splicing fitness (ln)” value (30 °C) is reported as -2.14 ± 0.19 and the “self-splicing fitness (ln)” value (37 °C) is reported as -1.8 ± 0.35.

With GGAUAGCAAUAUUACGGUAA the “self-splicing fitness (ln)” value (30 °C) was -2 ± 0.14 and the “self-splicing fitness (ln)” value (37 °C) was -1.45 ± 0.12.

In the case of GGAUAGCAAUAUUACGGUCU, the “self-splicing fitness (ln)” value (30 °C) is reported as -3.86 ± 0.4 and the “self-splicing fitness (ln)” value (37 °C) is reported as -1.99 ± 0.18.

In the case of GGAUAGCAAUAUUACGUAAA, the “self-splicing fitness (ln)” value (30 °C) is reported as -2.12 ± 0.17 and the “self-splicing fitness (ln)” value (37 °C) is reported as -1.42 ± 0.2.

For GGAUAGCAAUAUUACGUUUG, the “self-splicing fitness (ln)” value (30 °C) was -2.95 ± 0.2 and the “self-splicing fitness (ln)” value (37 °C) was -1.87 ± 0.21.

In the case of GGCAAGCAAUAUUACGAAUC, the “self-splicing fitness (ln)” value (30 °C) is reported as -0.875 ± 0.17 and the “self-splicing fitness (ln)” value (37 °C) is reported as -0.687 ± 0.26.

In the case of GGCAAGCAAUAUUACGACCG, the “self-splicing fitness (ln)” value (30 °C) is reported as -0.371 ± 0.11 and the “self-splicing fitness (ln)” value (37 °C) is reported as -0.482 ± 0.15.

With GGCAAGCAAUAUUACGACUC the “self-splicing fitness (ln)” value (30 °C) was -0.319 ± 0.15 and the “self-splicing fitness (ln)” value (37 °C) was 0.265 ± 0.17.

For GGCAAGCAAUAUUACGAGGC, the “self-splicing fitness (ln)” value (30 °C) was -0.0179 ± 0.3.
